Results from US20200270588A1, “GLUCOSYL TRANSFERASE POLYPEPTIDES AND METHODS OF USE” (Syngenta Participations AG, priority 2017, published 2020).

Test: UDP luminescence plate assay of E. coli extracts, mutants of SEQ ID No: 1, 2 mM metribuzin
Type: biochemical, Zea mays
Description: Optionally plate assays are stopped with brief heating to 95 C before returning to ice and addition of UDP-Glo detection reagent followed by incubation at lab temperature. […] In addition a UDP standard curve is run alongside each set of plate tests.
Assays were carried out on extracts of E. coli BL21 DE3 expressing the various C-terminally his-tagged library variants of SEQ ID NO:1 at the amino acid positions listed in Table 11 as described in Example 2 except, in this case, with 2 mM metribuzin in place of herbicide V.
Thus the ratio of the metribuzin to DMSO signal as well as the increase in signal relative to the w/t bx9 is used to help distinguish those mutations most likely to offer the highest activity to metribuzin. A follow up assay monitored by, for example, LC MS is one method to distinguish these cases more quantitatively.

B1: bx9 w/t: wild type Zea mays bx9 glucosyl transferase, C-terminally his-tagged SEQ ID NO: 1 (protein)
chain: MASSRTGAGAGGRVVVFPFPFQGHFNPVMRLARALHARGLAITVFHSGALDPADYPADYRFVPVTVEADPKLLASEDIAAIVTTLNASCDAPFRARLSALLAAEGRDSVRCVFTDVSWNAVLTASSDLGVPALGMMTASAASLRDYMAYRTLIDKGYLPVKEERKEDPVPELPPYLVKDLLRVDTSDLEEFAELLARTVTAARRASGLIFNTFPLIETDTLAEIHKALSVPVFAVAPLNKLVPTATASLHGVVQADRGCLQWLDTQQPGSVLYVSFGSMAAMDPHEFVELAWGLADSKRPFVWVVRPNLIRGFESGALPDGVEDEVRGRGIVVAWAPQEEVLAHPAVGGFLTHNGWNSTVEAISEGVPMVCCPRHGDQFGNMRYVCDVWKVGTELVGEQLERGQVKAAIDRLFGTKEGEEIKERMKEFKIAAAKGIGIGVDVDETASPRTDLTDLVDLIKSF
modifications: C-terminal His tag; Zea mays
SIGNAL: metribuzin signal of mutant divided by metribuzin signal of w/t bx9 (2 mM metribuzin): 1.00
UDP-Glo luminescence signal (2 mM metribuzin, 5 ul diluted extract, 40 minutes, DMSO control ~2.3E6, H24A ~1.7E6): ~3.4 E6
luminescence signal with metribuzin (2 mM metribuzin, H24A null background 1.00E+05 not subtracted): 1.23E+05
SIGNAL: metribuzin signal of mutant divided by the signal of w/t bx9 (2 mM metribuzin, relative to bx9 w/t): 1.00
luminescence signal in the DMSO control (mutants of SEQ ID No: 1, DMSO in place of metribuzin (background UDP-glucose hydrolysis)): 2.76E+05
luminescence signal observed with 2 mM metribuzin (mutants of SEQ ID No: 1 in E. coli extracts, 2 mM metribuzin, UDP luminescence): 2.80E+05

B2: M279F, H375Y: mutant combination of bx9 SEQ ID NO:1 (protein)
chain: MASSRTGAGAGGRVVVFPFPFQGHFNPVMRLARALHARGLAITVFHSGALDPADYPADYRFVPVTVEADPKLLASEDIAAIVTTLNASCDAPFRARLSALLAAEGRDSVRCVFTDVSWNAVLTASSDLGVPALGMMTASAASLRDYMAYRTLIDKGYLPVKEERKEDPVPELPPYLVKDLLRVDTSDLEEFAELLARTVTAARRASGLIFNTFPLIETDTLAEIHKALSVPVFAVAPLNKLVPTATASLHGVVQADRGCLQWLDTQQPGSVLYVSFGSFAAMDPHEFVELAWGLADSKRPFVWVVRPNLIRGFESGALPDGVEDEVRGRGIVVAWAPQEEVLAHPAVGGFLTHNGWNSTVEAISEGVPMVCCPRYGDQFGNMRYVCDVWKVGTELVGEQLERGQVKAAIDRLFGTKEGEEIKERMKEFKIAAAKGIGIGVDVDETASPRTDLTDLVDLIKSF
modifications: Zea mays
factor of increased signal relative to the bx9 w/t control signal (first parentheses) (2 mM metribuzin): 5.0
ratio of activity with metribuzin relative to activity with DMSO (second parentheses) (2 mM metribuzin): 6.0

B3: A432L: bx9 SEQ ID NO:1 mutant (protein)
chain: MASSRTGAGAGGRVVVFPFPFQGHFNPVMRLARALHARGLAITVFHSGALDPADYPADYRFVPVTVEADPKLLASEDIAAIVTTLNASCDAPFRARLSALLAAEGRDSVRCVFTDVSWNAVLTASSDLGVPALGMMTASAASLRDYMAYRTLIDKGYLPVKEERKEDPVPELPPYLVKDLLRVDTSDLEEFAELLARTVTAARRASGLIFNTFPLIETDTLAEIHKALSVPVFAVAPLNKLVPTATASLHGVVQADRGCLQWLDTQQPGSVLYVSFGSMAAMDPHEFVELAWGLADSKRPFVWVVRPNLIRGFESGALPDGVEDEVRGRGIVVAWAPQEEVLAHPAVGGFLTHNGWNSTVEAISEGVPMVCCPRHGDQFGNMRYVCDVWKVGTELVGEQLERGQVKAAIDRLFGTKEGEEIKERMKEFKIALAKGIGIGVDVDETASPRTDLTDLVDLIKSF
modifications: Zea mays
factor of increased signal relative to the bx9 w/t control signal (first parentheses) (2 mM metribuzin): 6
ratio of activity with metribuzin relative to activity with DMSO (second parentheses) (2 mM metribuzin): 1.30

B4: M279F, E339A, H375Y: mutant combination of bx9 SEQ ID NO:1 (protein)
chain: MASSRTGAGAGGRVVVFPFPFQGHFNPVMRLARALHARGLAITVFHSGALDPADYPADYRFVPVTVEADPKLLASEDIAAIVTTLNASCDAPFRARLSALLAAEGRDSVRCVFTDVSWNAVLTASSDLGVPALGMMTASAASLRDYMAYRTLIDKGYLPVKEERKEDPVPELPPYLVKDLLRVDTSDLEEFAELLARTVTAARRASGLIFNTFPLIETDTLAEIHKALSVPVFAVAPLNKLVPTATASLHGVVQADRGCLQWLDTQQPGSVLYVSFGSFAAMDPHEFVELAWGLADSKRPFVWVVRPNLIRGFESGALPDGVEDEVRGRGIVVAWAPQAEVLAHPAVGGFLTHNGWNSTVEAISEGVPMVCCPRYGDQFGNMRYVCDVWKVGTELVGEQLERGQVKAAIDRLFGTKEGEEIKERMKEFKIAAAKGIGIGVDVDETASPRTDLTDLVDLIKSF
modifications: Zea mays
factor of increased signal relative to the bx9 w/t control signal (first parentheses) (2 mM metribuzin): 7.5
ratio of activity with metribuzin relative to activity with DMSO (second parentheses) (2 mM metribuzin): 7.0

B5: S117G, M279W, E339A: mutant combination of bx9 SEQ ID NO:1 (protein)
chain: MASSRTGAGAGGRVVVFPFPFQGHFNPVMRLARALHARGLAITVFHSGALDPADYPADYRFVPVTVEADPKLLASEDIAAIVTTLNASCDAPFRARLSALLAAEGRDSVRCVFTDVGWNAVLTASSDLGVPALGMMTASAASLRDYMAYRTLIDKGYLPVKEERKEDPVPELPPYLVKDLLRVDTSDLEEFAELLARTVTAARRASGLIFNTFPLIETDTLAEIHKALSVPVFAVAPLNKLVPTATASLHGVVQADRGCLQWLDTQQPGSVLYVSFGSWAAMDPHEFVELAWGLADSKRPFVWVVRPNLIRGFESGALPDGVEDEVRGRGIVVAWAPQAEVLAHPAVGGFLTHNGWNSTVEAISEGVPMVCCPRHGDQFGNMRYVCDVWKVGTELVGEQLERGQVKAAIDRLFGTKEGEEIKERMKEFKIAAAKGIGIGVDVDETASPRTDLTDLVDLIKSF
modifications: Zea mays
factor of increased signal relative to the bx9 w/t control signal (first parentheses) (2 mM metribuzin): 5.0
ratio of activity with metribuzin relative to activity with DMSO (second parentheses) (2 mM metribuzin): 6.5

B6: M279F, H375F: mutant combination of bx9 SEQ ID NO:1 (protein)
chain: MASSRTGAGAGGRVVVFPFPFQGHFNPVMRLARALHARGLAITVFHSGALDPADYPADYRFVPVTVEADPKLLASEDIAAIVTTLNASCDAPFRARLSALLAAEGRDSVRCVFTDVSWNAVLTASSDLGVPALGMMTASAASLRDYMAYRTLIDKGYLPVKEERKEDPVPELPPYLVKDLLRVDTSDLEEFAELLARTVTAARRASGLIFNTFPLIETDTLAEIHKALSVPVFAVAPLNKLVPTATASLHGVVQADRGCLQWLDTQQPGSVLYVSFGSFAAMDPHEFVELAWGLADSKRPFVWVVRPNLIRGFESGALPDGVEDEVRGRGIVVAWAPQEEVLAHPAVGGFLTHNGWNSTVEAISEGVPMVCCPRFGDQFGNMRYVCDVWKVGTELVGEQLERGQVKAAIDRLFGTKEGEEIKERMKEFKIAAAKGIGIGVDVDETASPRTDLTDLVDLIKSF
modifications: Zea mays
factor of increased signal relative to the bx9 w/t control signal (first parentheses) (2 mM metribuzin): 5.0
ratio of activity with metribuzin relative to activity with DMSO (second parentheses) (2 mM metribuzin): 4.0

B7: S117G, M279W, E339V: mutant combination of bx9 SEQ ID NO:1 (protein)
chain: MASSRTGAGAGGRVVVFPFPFQGHFNPVMRLARALHARGLAITVFHSGALDPADYPADYRFVPVTVEADPKLLASEDIAAIVTTLNASCDAPFRARLSALLAAEGRDSVRCVFTDVGWNAVLTASSDLGVPALGMMTASAASLRDYMAYRTLIDKGYLPVKEERKEDPVPELPPYLVKDLLRVDTSDLEEFAELLARTVTAARRASGLIFNTFPLIETDTLAEIHKALSVPVFAVAPLNKLVPTATASLHGVVQADRGCLQWLDTQQPGSVLYVSFGSWAAMDPHEFVELAWGLADSKRPFVWVVRPNLIRGFESGALPDGVEDEVRGRGIVVAWAPQVEVLAHPAVGGFLTHNGWNSTVEAISEGVPMVCCPRHGDQFGNMRYVCDVWKVGTELVGEQLERGQVKAAIDRLFGTKEGEEIKERMKEFKIAAAKGIGIGVDVDETASPRTDLTDLVDLIKSF
modifications: Zea mays
factor of increased signal relative to the bx9 w/t control signal (first parentheses) (2 mM metribuzin): 7.5
ratio of activity with metribuzin relative to activity with DMSO (second parentheses) (2 mM metribuzin): 5.0

B8: M279W, H375Y: mutant combination of bx9 SEQ ID NO:1 (protein)
chain: MASSRTGAGAGGRVVVFPFPFQGHFNPVMRLARALHARGLAITVFHSGALDPADYPADYRFVPVTVEADPKLLASEDIAAIVTTLNASCDAPFRARLSALLAAEGRDSVRCVFTDVSWNAVLTASSDLGVPALGMMTASAASLRDYMAYRTLIDKGYLPVKEERKEDPVPELPPYLVKDLLRVDTSDLEEFAELLARTVTAARRASGLIFNTFPLIETDTLAEIHKALSVPVFAVAPLNKLVPTATASLHGVVQADRGCLQWLDTQQPGSVLYVSFGSWAAMDPHEFVELAWGLADSKRPFVWVVRPNLIRGFESGALPDGVEDEVRGRGIVVAWAPQEEVLAHPAVGGFLTHNGWNSTVEAISEGVPMVCCPRYGDQFGNMRYVCDVWKVGTELVGEQLERGQVKAAIDRLFGTKEGEEIKERMKEFKIAAAKGIGIGVDVDETASPRTDLTDLVDLIKSF
modifications: Zea mays
factor of increased signal relative to the bx9 w/t control signal (first parentheses) (2 mM metribuzin): 4.0
ratio of activity with metribuzin relative to activity with DMSO (second parentheses) (2 mM metribuzin): 5.0
